Data published in paper PMC2064240 (The Journal of Cell Biology, 2006).

Biological target: T1, GST-SV343-571 (bovine, UniProt O46385-2 343-571)
T1 sequence (looked up): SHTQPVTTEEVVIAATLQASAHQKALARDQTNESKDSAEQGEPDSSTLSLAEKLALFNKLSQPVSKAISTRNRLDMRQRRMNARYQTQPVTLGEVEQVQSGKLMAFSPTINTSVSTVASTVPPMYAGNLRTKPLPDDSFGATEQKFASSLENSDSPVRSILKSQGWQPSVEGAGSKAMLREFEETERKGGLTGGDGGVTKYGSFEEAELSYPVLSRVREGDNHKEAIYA
Assay: pull-down

B1: 6×His-tagged TRIP6 LIM domains (aa 265-476) (domain or fragment, human (HeLa cell cDNA library), UniProt Q15654-1 265-476, looked up)
chain: HDMNHPPSGEYFGQCGGCGEDVVGDGAGVVALDRVFHVGCFVCSTCRAQLRGQHFYAVERRAYCEGCYVATLEKCATCSQPILDRILRAMGKAYHPGCFTCVVCHRGLDGIPFTVDATSQIHCIEDFHRKFAPRCSVCGGAIMPEPGQEETVRIVALDRSFHIGCYKCEECGLLLSSEGECQGCYPLDGHILCKACSAWRIQELSATVTTDC
- binding result: binds
